Data from publication PMC9482650, “Quantitative fragmentomics allow affinity mapping of interactomes” (Nature Communications, 2022).

What was measured:
Experiment in all cases: holdup assay
Parameters in all cases: key: below the threshold = too weak to quantify, mostly under pKd 3.1 to 4
[1] = target: T1, NHERF3_4, Q5T2W1
T1 sequence (Q5T2W1 373-468, limits assumed, looked up): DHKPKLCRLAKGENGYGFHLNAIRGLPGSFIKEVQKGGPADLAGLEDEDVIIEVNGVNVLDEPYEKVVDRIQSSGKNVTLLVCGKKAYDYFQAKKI

[2] = target: GOPC, Q9HD26
[3] = target: GRID2IP_2, A4D2P6
[4] = target: DLG1_1, Q12959
[5] = target: NHERF2_2, Q15599
[6] = target: T2, PDZD2_2, O15018
T2 sequence (O15018 329-429, limits assumed, looked up): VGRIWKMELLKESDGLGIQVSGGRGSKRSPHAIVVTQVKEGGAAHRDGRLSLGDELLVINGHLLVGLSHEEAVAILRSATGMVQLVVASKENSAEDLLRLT

[7] = target: DLG1_2, Q12959
[8] = target: T3, LIN7A, O14910
T3 sequence (O14910 103-200, limits assumed, looked up): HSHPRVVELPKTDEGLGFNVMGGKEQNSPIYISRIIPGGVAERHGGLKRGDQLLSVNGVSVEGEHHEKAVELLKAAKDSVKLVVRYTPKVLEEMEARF

[9] = target: T4, MPP6, Q9NZW5
T4 sequence (Q9NZW5 125-219, limits assumed, looked up): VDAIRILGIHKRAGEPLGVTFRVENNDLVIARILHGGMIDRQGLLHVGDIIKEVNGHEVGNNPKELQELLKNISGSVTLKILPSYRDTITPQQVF

[10] = target: DLG1_3, Q12959
[11] = target: FRMPD2_3, Q68DX3
[12] = target: GRIP2_6, Q9C0E4
[13] = target: T5, PCLO, Q9Y6V0
T5 sequence (Q9Y6V0 4491-4600, limits assumed, looked up): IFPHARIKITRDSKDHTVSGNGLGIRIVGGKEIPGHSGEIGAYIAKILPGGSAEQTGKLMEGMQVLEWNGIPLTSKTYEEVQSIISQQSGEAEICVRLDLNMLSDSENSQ

[14] = target: T6, MPDZ_5, O75970
T6 sequence (O75970 695-796, limits assumed, looked up): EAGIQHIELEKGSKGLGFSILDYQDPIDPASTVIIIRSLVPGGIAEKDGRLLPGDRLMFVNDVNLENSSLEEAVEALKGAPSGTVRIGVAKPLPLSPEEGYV

[15] = target: T7, DLG3_1, Q92796
T7 sequence (Q92796 125-227, limits assumed, looked up): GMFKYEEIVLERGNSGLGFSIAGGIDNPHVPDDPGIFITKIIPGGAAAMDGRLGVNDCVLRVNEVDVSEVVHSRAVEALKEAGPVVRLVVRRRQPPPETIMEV

[16] = target: IL16_3, Q14005
[17] = target: T8, SNTA1, Q13424
T8 sequence (Q13424 82-180, limits assumed, looked up): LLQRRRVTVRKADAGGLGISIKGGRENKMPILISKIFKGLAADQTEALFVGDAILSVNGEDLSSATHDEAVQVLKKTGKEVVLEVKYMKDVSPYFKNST

[18] = target: MAGI2_2, Q86UL8
[19] = target: GRIP2_5, Q9C0E4
[20] = target: T9, SIPA1L2, Q9P2F8
T9 sequence (Q9P2F8 945-1036, limits assumed, looked up): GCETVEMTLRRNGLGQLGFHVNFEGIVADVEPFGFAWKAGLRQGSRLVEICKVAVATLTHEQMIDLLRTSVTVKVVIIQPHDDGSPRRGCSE

[21] = target: MAST1, Q9Y2H9
[22] = target: CASK, O14936
[23] = target: T10, DFNB31_3, Q9P202
T10 sequence (Q9P202 811-907, limits assumed, looked up): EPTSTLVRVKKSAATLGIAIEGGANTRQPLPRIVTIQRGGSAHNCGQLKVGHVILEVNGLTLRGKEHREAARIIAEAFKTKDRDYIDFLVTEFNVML

[24] = target: HTRA2, O43464
[25] = target: FRMPD3, Q5JV73
[26] = target: GRASP, Q7Z6J2
[27] = target: T11, NHERF3_1, Q5T2W1
T11 sequence (Q5T2W1 4-100, limits assumed, looked up): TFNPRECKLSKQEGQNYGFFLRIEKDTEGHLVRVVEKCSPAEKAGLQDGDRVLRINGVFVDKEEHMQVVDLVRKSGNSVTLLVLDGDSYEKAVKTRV

[28] = plain residues with an end cap or a label only (N-terminal biotin on a linker: ado-ado)
[29] = modified: phospho on T at position -2 from the C-terminal residue

Sequence of FRMPD3, Q5JV73 (Q5JV73 12-100): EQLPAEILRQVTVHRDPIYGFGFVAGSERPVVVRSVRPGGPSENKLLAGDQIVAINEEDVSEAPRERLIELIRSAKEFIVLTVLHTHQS
Sequence of GRIP2_6, Q9C0E4 (Q9C0E4 648-740): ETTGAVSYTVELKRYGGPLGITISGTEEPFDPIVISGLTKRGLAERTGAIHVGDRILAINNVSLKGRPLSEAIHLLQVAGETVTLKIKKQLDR
Sequence of NHERF2_2, Q15599 (Q15599 142-238): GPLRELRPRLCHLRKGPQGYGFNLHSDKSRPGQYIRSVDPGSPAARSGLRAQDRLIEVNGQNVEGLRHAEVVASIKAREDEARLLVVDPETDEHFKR
Sequence of GRASP, Q7Z6J2 (Q7Z6J2 96-193): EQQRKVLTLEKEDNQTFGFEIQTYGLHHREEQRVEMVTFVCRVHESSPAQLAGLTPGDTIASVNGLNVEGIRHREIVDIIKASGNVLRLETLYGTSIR
Sequence of GRID2IP_2, A4D2P6 (A4D2P6 272-370): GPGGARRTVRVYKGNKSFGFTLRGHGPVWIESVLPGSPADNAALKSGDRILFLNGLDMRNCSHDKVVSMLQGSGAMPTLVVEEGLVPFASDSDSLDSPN
Sequence of CASK, O14936 (O14936 487-570): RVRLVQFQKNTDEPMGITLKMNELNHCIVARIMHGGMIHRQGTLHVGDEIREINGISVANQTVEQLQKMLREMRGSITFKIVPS
Sequence of MAST1, Q9Y2H9 (Q9Y2H9 962-1065): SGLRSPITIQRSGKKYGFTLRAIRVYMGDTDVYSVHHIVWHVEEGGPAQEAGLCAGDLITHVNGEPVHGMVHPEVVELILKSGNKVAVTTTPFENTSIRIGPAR
Sequence of HTRA2, O43464 (O43464 355-458): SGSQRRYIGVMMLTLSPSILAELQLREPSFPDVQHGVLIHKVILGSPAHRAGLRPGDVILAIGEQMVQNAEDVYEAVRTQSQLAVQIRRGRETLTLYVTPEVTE
Sequence of IL16_3, Q14005 (Q14005 1107-1207): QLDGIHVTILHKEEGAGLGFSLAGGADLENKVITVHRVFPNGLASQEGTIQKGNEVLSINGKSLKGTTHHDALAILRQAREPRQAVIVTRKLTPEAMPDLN
Sequence of GRIP2_5, Q9C0E4 (Q9C0E4 544-642): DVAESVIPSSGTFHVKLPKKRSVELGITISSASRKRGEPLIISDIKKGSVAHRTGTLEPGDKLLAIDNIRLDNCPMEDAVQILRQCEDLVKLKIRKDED
Sequence of FRMPD2_3, Q68DX3 (Q68DX3 1073-1166): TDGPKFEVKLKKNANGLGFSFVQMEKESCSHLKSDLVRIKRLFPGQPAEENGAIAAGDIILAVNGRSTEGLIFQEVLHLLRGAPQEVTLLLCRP
Sequence of MAGI2_2, Q86UL8 (Q86UL8 410-522): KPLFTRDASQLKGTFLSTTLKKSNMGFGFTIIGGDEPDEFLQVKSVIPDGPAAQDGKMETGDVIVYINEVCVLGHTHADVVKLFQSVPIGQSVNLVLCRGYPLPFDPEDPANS

B1: TNRC6B, Q9UPQ9 (peptide)
chain: DLLGGGSDSI
Q: Which pKd [1, 28] does the source give for B1 here?
A: below the threshold

Q: What about the pKd [2, 28] of the same binder?
A: below the threshold

Q: And the pKd [3, 28]?
A: below the threshold

Q: What about the pKd [4, 28] of the same binder?
A: below the threshold

Q: What about the pKd [5, 28] of the same binder?
A: below the threshold

Q: What about the pKd [6, 28] of the same binder?
A: 3.68

Q: And the pKd [7, 28]?
A: below the threshold

Q: What about the pKd [8, 28] of the same binder?
A: below the threshold

Q: And the pKd [9, 28]?
A: below the threshold

Q: What about the pKd [10, 28] of the same binder?
A: below the threshold

Q: And the pKd [11, 28]?
A: 3.51

Q: What about the pKd [12, 28] of the same binder?
A: below the threshold

Q: And the pKd [13, 28]?
A: below the threshold

Q: What about the pKd [14, 28] of the same binder?
A: below the threshold

Q: And the pKd [15, 28]?
A: below the threshold

Q: What about the pKd [16, 28] of the same binder?
A: below the threshold

Q: What about the pKd [17, 28] of the same binder?
A: below the threshold

Q: What about the pKd [18, 28] of the same binder?
A: below the threshold

Q: And the pKd [19, 28]?
A: below the threshold

Q: What about the pKd [20, 28] of the same binder?
A: below the threshold

Q: What about the pKd [21, 28] of the same binder?
A: 3.85

Q: And the pKd [22, 28]?
A: below the threshold

Q: What about the pKd [23, 28] of the same binder?
A: 4.01

Q: What about the pKd [24, 28] of the same binder?
A: below the threshold

Q: And the pKd [25, 28]?
A: below the threshold

Q: And the pKd [26, 28]?
A: below the threshold

Q: And the pKd [27, 28]?
A: below the threshold

B2: HPV33-E6_-2P, P06427 (peptide)
chain: SRSRRRETAL
Q: What does the source list for B2?
A: pKd [1, 29]: below the threshold; pKd [2, 29]: below the threshold; pKd [3, 29]: below the threshold; pKd [4, 29]: below the threshold; pKd [5, 29]: below the threshold; pKd [6, 29]: below the threshold; pKd [7, 29]: below the threshold; pKd [8, 29]: below the threshold; pKd [9, 29]: 3.68; pKd [10, 29]: below the threshold; pKd [11, 29]: below the threshold; pKd [12, 29]: below the threshold; pKd [13, 29]: below the threshold; pKd [14, 29]: below the threshold; pKd [15, 29]: below the threshold; pKd [16, 29]: below the threshold; pKd [17, 29]: below the threshold; pKd [18, 29]: below the threshold; pKd [19, 29]: below the threshold; pKd [20, 29]: below the threshold; pKd [21, 29]: below the threshold; pKd [22, 29]: below the threshold; pKd [23, 29]: 4.02; pKd [24, 29]: below the threshold; pKd [25, 29]: below the threshold; pKd [26, 29]: below the threshold; pKd [27, 29]: below the threshold

B3: CLDN20, P56880 (peptide)
chain: NSTHNLKDYV
Q: Which results are given for B3?
A: pKd [1, 28]: below the threshold; pKd [2, 28]: below the threshold; pKd [3, 28]: below the threshold; pKd [4, 28]: below the threshold; pKd [5, 28]: below the threshold; pKd [6, 28]: 4.56; pKd [7, 28]: 3.5; pKd [8, 28]: below the threshold; pKd [9, 28]: below the threshold; pKd [10, 28]: below the threshold; pKd [11, 28]: below the threshold; pKd [12, 28]: below the threshold; pKd [13, 28]: below the threshold; pKd [14, 28]: below the threshold; pKd [15, 28]: below the threshold; pKd [16, 28]: below the threshold; pKd [17, 28]: below the threshold; pKd [18, 28]: below the threshold; pKd [19, 28]: below the threshold; pKd [20, 28]: below the threshold; pKd [21, 28]: 3.65; pKd [22, 28]: below the threshold; pKd [23, 28]: below the threshold; pKd [24, 28]: below the threshold; pKd [25, 28]: below the threshold; pKd [26, 28]: 3.47; pKd [27, 28]: 4.19
